Test results published in patent US20180346555A1.

Experiments:
[1] = target: European Hornbeam (Car b 1 isoform 2, MyBiosource, Cat# MBS 1043940) (European Hornbeam) (UniProt P38950); assay: SPR Biacore 4000, mAb captured by anti-human Fc, 25 C
[2] = target: European Hornbeam (Car b 1 isoform 1A & 1B, MyBiosource, Cat#MBS 1200018) (European Hornbeam) (UniProt P38949); assay: as above
[3] = target: Hazel (Cor A 1, MyBiosource, Cat# MBS5304600) (Hazel) (UniProt Q08407); assay: as above
[4] = target: Apple (Mal d 1, MyBiosource, Cat# MBS 1224919) (Apple) (UniProt P43211); assay: as above
[5] = target: Celery (Api g 1, MyBiosource, Cat# MBS 1171376) (Celery) (UniProt P49372); assay: as above
[6] = target: Alder (Aln g 1, MyBiosource, Cat# MBS 1041484) (Alder) (UniProt P38948); assay: as above
[7] = target: natural Bet v 1 (Indoor Biotechnologies, # NA-BV1-1) (Betula verrucosa (Betula pendula)) (UniProt P15494); assay: blocking ELISA, captured IgE of donor 26532-CC, 1 ug/mL antibody
[8] = target: natural Bet v 1 (Indoor Biotechnologies, # NA-BV1-1) (Betula verrucosa (Betula pendula)) (UniProt P15494); assay: blocking ELISA, captured IgE of donor 23939-MH, 1 ug/mL antibody
[9] = target: natural Bet v 1 (Indoor Biotechnologies, # NA-BV1-1) (Betula verrucosa (Betula pendula)) (UniProt P15494); assay: blocking ELISA, captured IgE of donor 25609-MS, 1 ug/mL antibody
[10] = target: natural Bet v 1 (Indoor Biotechnologies, # NA-BV1-1) (Betula verrucosa (Betula pendula)) (UniProt P15494); assay: blocking ELISA, captured IgE of donor 25299-RJ, 1 ug/mL antibody
[11] = target: natural Bet v 1 (Indoor Biotechnologies, # NA-BV1-1) (Betula verrucosa (Betula pendula)) (UniProt P15494); assay: blocking ELISA, captured IgE of donor 23035-BL, 1 ug/mL antibody
[12] = target: natural Bet v 1 (Indoor Biotechnologies, # NA-BV1-1) (Betula verrucosa (Betula pendula)) (UniProt P15494); assay: blocking ELISA, captured IgE of donor 29718-MW, 1 ug/mL antibody
[13] = target: natural Bet v 1 (Indoor Biotechnologies, # NA-BV1-1) (Betula verrucosa (Betula pendula)) (UniProt P15494); assay: dose-response blocking ELISA, captured IgE of donor 25340-RR, at 1 ug/mL antibody
[14] = target: natural Bet v 1 (Indoor Biotechnologies, # NA-BV1-1) (Betula verrucosa (Betula pendula)) (UniProt P15494); assay: dose-response blocking ELISA, captured IgE of donor 23939-MH, at 1 ug/mL antibody
[15] = target: natural Bet v 1 (Indoor Biotechnologies, # NA-BV1-1) (Betula verrucosa (Betula pendula)) (UniProt P15494); assay: dose-response blocking ELISA, captured IgE of donor 25609-MS, at 1 ug/mL antibody
[16] = target: natural Bet v 1 (Indoor Biotechnologies, # NA-BV1-1) (Betula verrucosa (Betula pendula)) (UniProt P15494); assay: blocking ELISA, captured IgE of donor 25340-RR, 1 ug/mL antibody
[17] = target: natural Bet v 1 (Indoor Biotechnologies, # NA-BV1-1) (Betula verrucosa (Betula pendula)) (UniProt P15494); assay: blocking ELISA, captured IgE of donor 22627-MN, 1 ug/mL antibody
[18] = target: natural Bet v 1 (Indoor Biotechnologies, # NA-BV1-1) (Betula verrucosa (Betula pendula)) (UniProt P15494); assay: blocking ELISA, captured IgE of donor 25414-CW, 1 ug/mL antibody
[19] = target: natural Bet v 1 (Indoor Biotechnologies, # NA-BV1-1) (Betula verrucosa (Betula pendula)) (UniProt P15494); assay: blocking ELISA, captured IgE of donor 23658-MD, 1 ug/mL antibody

European Hornbeam (Car b 1 isoform 1A & 1B, MyBiosource, Cat#MBS 1200018) (European Hornbeam), sequence (P38949 2-160): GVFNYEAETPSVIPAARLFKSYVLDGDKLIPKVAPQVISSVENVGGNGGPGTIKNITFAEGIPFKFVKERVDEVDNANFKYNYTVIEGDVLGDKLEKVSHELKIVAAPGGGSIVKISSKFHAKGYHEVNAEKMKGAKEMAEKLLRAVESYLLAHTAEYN
Celery (Api g 1, MyBiosource, Cat# MBS 1171376) (Celery), sequence (P49372 whole entry): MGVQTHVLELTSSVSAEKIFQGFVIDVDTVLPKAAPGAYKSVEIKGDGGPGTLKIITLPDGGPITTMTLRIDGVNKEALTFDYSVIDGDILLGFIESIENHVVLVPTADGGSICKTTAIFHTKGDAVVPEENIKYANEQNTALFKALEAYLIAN
European Hornbeam (Car b 1 isoform 2, MyBiosource, Cat# MBS 1043940) (European Hornbeam), sequence (P38950 2-160 limits assumed): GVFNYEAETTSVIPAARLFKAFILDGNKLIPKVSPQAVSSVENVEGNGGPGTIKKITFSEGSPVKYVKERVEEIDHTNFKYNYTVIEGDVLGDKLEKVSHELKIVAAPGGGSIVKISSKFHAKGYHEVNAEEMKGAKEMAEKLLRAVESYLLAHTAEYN
Hazel (Cor A 1, MyBiosource, Cat# MBS5304600) (Hazel), sequence (Q08407 2-160 limits assumed): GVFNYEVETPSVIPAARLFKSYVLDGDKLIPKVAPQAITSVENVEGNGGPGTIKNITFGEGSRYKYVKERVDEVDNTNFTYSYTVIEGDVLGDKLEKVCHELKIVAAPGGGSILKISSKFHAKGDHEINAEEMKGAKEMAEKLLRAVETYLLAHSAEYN
Apple (Mal d 1, MyBiosource, Cat# MBS 1224919) (Apple), sequence (P43211 2-159 limits assumed): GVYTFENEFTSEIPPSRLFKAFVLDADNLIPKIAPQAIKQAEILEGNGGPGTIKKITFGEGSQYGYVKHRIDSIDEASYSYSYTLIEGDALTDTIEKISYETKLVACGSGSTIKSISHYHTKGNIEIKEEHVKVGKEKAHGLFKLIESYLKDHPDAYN
Alder (Aln g 1, MyBiosource, Cat# MBS 1041484) (Alder), sequence (P38948 2-160 limits assumed): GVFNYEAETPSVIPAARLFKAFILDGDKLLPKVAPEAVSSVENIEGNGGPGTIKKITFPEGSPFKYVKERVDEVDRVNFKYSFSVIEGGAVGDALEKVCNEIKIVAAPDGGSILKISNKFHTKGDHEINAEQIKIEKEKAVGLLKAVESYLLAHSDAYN

Substance	100 nM Analyte Bound (RU) [1]	100 nM Analyte Bound (RU) [2]	100 nM Analyte Bound (RU) [3]	100 nM Analyte Bound (RU) [4]	100 nM Analyte Bound (RU) [5]	100 nM Analyte Bound (RU) [6]	Percent Blocking [7]	Percent Blocking [8]	Percent Blocking [9]	Percent Blocking [10]	Percent Blocking [11]	Percent Blocking [12]	Percent Blocking [13]	Percent Blocking [14]	Percent Blocking [15]	Percent Blocking [16]	Percent Blocking [17]	Percent Blocking [18]	Percent Blocking [19]
Isotype Control (antibody)	0 RU	0 RU	1 RU	0 RU	-1 RU	0 RU	–	–	–	–	–	–	–	–	–	–	–	–	–
Isotype control (antibody)	–	–	–	–	–	–	-4%	-2%	-2%	-4%	-5%	-2%	10.6%	16.8%	8.8%	-1%	-3%	-4%	-3%
